Measured values as given in paper PMC10330843 (Cell, 2023).

Molecular target: recombinant full-length mouse cGAS (mouse, UniProt Q8C6L5 1-507)
Assay: co-IP

Sequence of recombinant full-length mouse cGAS (Q8C6L5 whole entry): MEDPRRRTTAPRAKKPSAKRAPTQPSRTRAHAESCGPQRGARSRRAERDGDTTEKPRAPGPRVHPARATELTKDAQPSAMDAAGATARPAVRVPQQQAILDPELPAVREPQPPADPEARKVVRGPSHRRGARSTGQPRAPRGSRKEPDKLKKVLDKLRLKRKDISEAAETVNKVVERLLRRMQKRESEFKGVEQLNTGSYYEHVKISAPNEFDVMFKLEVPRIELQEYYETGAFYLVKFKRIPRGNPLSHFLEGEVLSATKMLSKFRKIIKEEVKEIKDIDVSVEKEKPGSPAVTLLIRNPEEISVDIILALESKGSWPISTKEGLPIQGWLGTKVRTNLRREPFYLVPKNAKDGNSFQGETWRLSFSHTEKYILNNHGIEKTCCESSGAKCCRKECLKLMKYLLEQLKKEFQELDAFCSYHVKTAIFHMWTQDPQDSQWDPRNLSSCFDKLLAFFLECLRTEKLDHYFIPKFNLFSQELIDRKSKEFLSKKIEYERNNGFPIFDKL

binding result: binds
B1: recombinant full-length mouse ZBP1 (natural protein, UniProt Q9QY24 1-411, looked up)
chain: MAEAPVDLSTGDNLEQKILQVLSDDGGPVKIGQLVKKCQVPKKTLNQVLYRLKKEDRVSSPEPATWSIGGAASGDGAPAIPENSSAQPSLDERILRFLEANGPHRALHIAKALGMTTAKEVNPLLYSMRNKHLLSYDGQTWKIYHSRQEGQDIAHSGVTQESPAIICQHNPVNMICQQGANSHISIANSNAIQIGHGNVIVREKACGEPGPRTSHPLPLAWDASAQDMPPVAHGAQYIYMDKSLLQQVQLGHHNEMSLVGDAGKHPSYSFSDSPPEVSTTTADPGASFNMQTFEPGPHPEGDTVQTVHIKSCFLEDATIGNGNKMTIHLRSKGEVMESGDSEEPKKEDTGTSSEATPPRSCQHTPSDSMLPTSELRAMALGDSSPQTTEPVLREHEVQDIESSQDTGLSKQ
